Data reported in PMC4436832 (Molecular Biology of the Cell, 2015).
Where a chain is given by its changes, count along the chain named. In names and notes the source's numbering stands.

B1: Wild-type CapuCT (C-terminal Capu construct, residues 467–1059) (domain or fragment)
chain: VSDNESAKEDGEKPHAVAPPPPPPPPPLHAFVAPPPPPPPPPPPPPPLANYGAPPPPPPPPPGSGSAPPPPPPAPIEGGGGIPPPPPPMSASPSKTTISPAPLPDPAEGNWFHRTNTMRKSAVNPPKPMRPLYWTRIVTSAPPAPRPPSVANSTDSTENSGSSPDEPPAANGADAPPTAPPATKEIWTEIEETPLDNIDEFTELFSRQAIAPVSKPKELKVKRAKSIKVLDPERSRNVGIIWRSLHVPSSEIEHAIYHIDTSVVSLEALQHMSNIQATEDELQRIKEAAGGDIPLDHPEQFLLDISLISMASERISCIVFQAEFEESVTLLFRKLETVSQLSQQLIESEDLKLVFSIILTLGNYMNGGNRQRGQADGFNLDILGKLKDVKSKESHTTLLHFIVRTYIAQRRKEGVHPLEIRLPIPEPADVERAAQMDFEEVQQQIFDLNKKFLGCKRTTAKVLAASRPEIMEPFKSKMEEFVEGADKSMAKLHQSLDECRDLFLETMRFYHFSPKACTLTLAQCTPDQFFEYWTNFTNDFKDIWKKEITSLLNELMKKSKQAQIESRRNVSTKVEKSGRISLKERMLMRRSKN
B2: CapuCT-I751T (domain or fragment)
chain: B1 chain with I285T
B3: CapuCT-D854N (domain or fragment)
chain: B1 chain with D388N
B4: CapuCT-D662N (domain or fragment)
chain: B1 chain with D196N
B5: CapuCT-H977Y (domain or fragment)
chain: B1 chain with H511Y
B6: CapuCT-K586M (domain or fragment)
chain: B1 chain with K120M
B7: CapuCT-P597L (domain or fragment)
chain: B1 chain with P131L

Molecular target: Acanthamoeba castellani actin (filaments) (Acanthamoeba castellani)
Assay: not given

| Binder | koff |
| --- | --- |
| B1 | 0.000245 s⁻¹ |
| B2 | 0.00277 s⁻¹ |
| B3 | 0.000592 s⁻¹ |
| B4 | 0.000297 s⁻¹ |
| B5 | 0.0013 s⁻¹ |
| B6 | 0.000852 s⁻¹ |
| B7 | 0.0021 s⁻¹ |

Molecular target: Taxol-stabilized microtubules (tubulin, Cytoskeleton T240) (UniProt P02550)
Assay: co-sedimentation

| Binder | Kd | stoichiometry N (α/β dimers per binding site) |
| --- | --- | --- |
| B1 | 150 nM | 1.42 |
| B3 | 100 nM | 1.48 |
| B4 | 250 nM | 0.87 |
| B5 | 180 nM | 0.95 |
| B6 | 250 nM | 0.88 |
| B7 | 300 nM | 0.88 |

Molecular target: the molecule itself
Assay: SEC

| Binder | stoichiometry N |
| --- | --- |
| B1 | 2 |
| B3 | 2 |
| B4 | 2 |
| B5 | 2 |
| B6 | 2 |
| B7 | 2 |
